US20130315910A1 (Xencor, published 2013)

T1: cynoFcγRIIb (Macaca fascicularis, UniProt A0A140HDP4)
T1 construct: extracellular region, C-terminal His- and GST-tag; also called cynomolgus monkey FcγRIIb
T1 sequence (receptor extracellular region): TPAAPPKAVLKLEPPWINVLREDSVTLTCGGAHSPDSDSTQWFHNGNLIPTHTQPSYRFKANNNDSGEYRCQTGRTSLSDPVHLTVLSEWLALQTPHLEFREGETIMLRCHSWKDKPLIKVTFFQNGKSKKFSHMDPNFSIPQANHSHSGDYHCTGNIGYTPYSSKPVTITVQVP

T2: human FcγRIIa (131R), His- and GST-tagged (human, UniProt P12318 34-217)
T2 construct: Expressed in HEK293T cells, purified by nickel chromatography; also called R131 FcγRIIa; not shown: 6xHis and GST tags of the pTT5 vector
T2 sequence (looked up): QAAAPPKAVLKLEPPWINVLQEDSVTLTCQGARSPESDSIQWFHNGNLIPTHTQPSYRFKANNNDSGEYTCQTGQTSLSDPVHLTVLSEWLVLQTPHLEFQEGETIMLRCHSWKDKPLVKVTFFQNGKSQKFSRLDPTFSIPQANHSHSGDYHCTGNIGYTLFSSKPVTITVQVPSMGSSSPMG

T3: human FcγRIIa (131H), His- and GST-tagged (human, UniProt P12318 34-217)
T3 construct: also called H131 FcγRIIa; HIIa; not shown: 6xHis and GST tags of the pTT5 vector
T3 sequence (looked up): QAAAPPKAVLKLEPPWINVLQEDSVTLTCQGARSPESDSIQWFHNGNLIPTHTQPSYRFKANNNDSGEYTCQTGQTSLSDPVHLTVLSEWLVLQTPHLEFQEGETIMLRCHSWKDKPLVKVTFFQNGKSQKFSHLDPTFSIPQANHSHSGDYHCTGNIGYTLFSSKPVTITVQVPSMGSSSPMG

T4: human FcγRIIb receptor protein (R&D Systems) (human, UniProt P31994 46-217)
T4 construct: Bought protein injected over captured antibody in Biacore; also called CD32b
T4 sequence (looked up): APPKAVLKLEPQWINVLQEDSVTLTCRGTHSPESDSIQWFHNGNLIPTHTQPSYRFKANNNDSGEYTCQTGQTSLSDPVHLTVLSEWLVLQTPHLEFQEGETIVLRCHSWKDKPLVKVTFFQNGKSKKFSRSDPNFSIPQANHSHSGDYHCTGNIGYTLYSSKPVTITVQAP

T5: mFcγRIV
T5 construct: also called mouse FcγRIV; not shown: C-terminal His and GST tags (named only on our card)
T5 chain: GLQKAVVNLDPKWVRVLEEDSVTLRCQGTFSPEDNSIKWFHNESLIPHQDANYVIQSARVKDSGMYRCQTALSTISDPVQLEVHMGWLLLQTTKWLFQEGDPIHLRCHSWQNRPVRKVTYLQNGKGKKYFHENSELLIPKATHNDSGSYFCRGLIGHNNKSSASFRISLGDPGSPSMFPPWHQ

T6: mFcγRIIb (Mus musculus, UniProt P08101)
T6 construct: extracellular region, C-terminal His- and GST-tag; also called mouse FcγRII
T6 sequence (receptor extracellular region, looked up): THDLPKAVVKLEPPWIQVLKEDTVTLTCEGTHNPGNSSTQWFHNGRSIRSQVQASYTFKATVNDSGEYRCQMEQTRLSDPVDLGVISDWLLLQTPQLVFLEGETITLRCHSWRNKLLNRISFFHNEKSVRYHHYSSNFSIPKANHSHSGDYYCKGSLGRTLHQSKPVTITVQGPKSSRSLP


Assays:
Assay in all cases: SPR
[1] = biological target: T1, cynoFcγRIIb
[2] = biological target: T7, cynoFcγRIIIa (Macaca fascicularis, UniProt Q8SPW2)
T7 construct: extracellular region, C-terminal His- and GST-tag; also called cynomolgus monkey FcγRIIIa
T7 sequence (Q8SPW2 17-208): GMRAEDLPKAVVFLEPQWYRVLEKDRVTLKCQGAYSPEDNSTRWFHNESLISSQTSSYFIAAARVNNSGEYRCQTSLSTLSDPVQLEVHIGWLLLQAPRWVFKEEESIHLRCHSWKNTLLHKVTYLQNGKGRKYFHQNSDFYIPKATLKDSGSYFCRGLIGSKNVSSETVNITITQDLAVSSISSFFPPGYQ

[3] = biological target: T8, human FcγRIIIa (158V), His- and GST-tagged (human, UniProt P08637 17-208)
T8 construct: also called V158 FcγRIIIa; VIIIa; not shown: 6xHis and GST tags of the pTT5 vector
T8 sequence (P08637 17-208 F176V): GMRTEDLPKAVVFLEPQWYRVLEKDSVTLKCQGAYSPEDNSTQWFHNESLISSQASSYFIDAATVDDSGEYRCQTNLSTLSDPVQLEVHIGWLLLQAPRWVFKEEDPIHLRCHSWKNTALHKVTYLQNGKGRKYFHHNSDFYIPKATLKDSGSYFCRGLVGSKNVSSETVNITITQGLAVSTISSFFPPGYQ

[4] = biological target: T2, human FcγRIIa (131R), His- and …
[5] = biological target: T3, human FcγRIIa (131H), His- and …
[6] = biological target: T4, human FcγRIIb receptor protein (R&D …)
[7] = biological target: T9, human FcγRI receptor protein (R&D Systems) (human, UniProt P12314 16-288)
T9 construct: also called soluble FcγRI; solFcγRI
T9 sequence (P12314 16-288 limits assumed): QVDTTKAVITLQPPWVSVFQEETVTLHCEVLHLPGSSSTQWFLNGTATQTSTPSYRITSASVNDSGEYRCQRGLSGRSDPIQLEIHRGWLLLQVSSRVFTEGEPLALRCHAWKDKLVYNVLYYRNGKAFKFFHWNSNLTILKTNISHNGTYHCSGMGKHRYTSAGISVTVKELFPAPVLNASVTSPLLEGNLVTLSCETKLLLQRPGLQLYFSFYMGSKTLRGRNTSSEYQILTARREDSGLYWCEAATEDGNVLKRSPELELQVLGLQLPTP

[8] = biological target: T5, mFcγRIV
[9] = biological target: T6, mFcγRIIb

Binder | Fold vs WT IgG1 (Kd) [1] | Fold vs WT IgG1 (Kd) [2] | Fold vs WT IgG1 [3] | Kd [3] | Fold vs WT IgG1 [4] | Kd [4] | Fold vs WT IgG1 [5] | Kd [5] | Fold vs WT IgG1 [6] | Kd [6] | Fold vs WT IgG1 [7] | Kd [7] | Fold vs WT IgG1 (Kd) [8] | Fold vs WT IgG1 (off-rate) [8] | Fold vs WT IgG1 (off-rate) [2] | Fold vs WT IgG1 (Kd) [9] | Fold vs WT IgG1 (off-rate) [1] | Fold vs WT IgG1 (off-rate) [9]
S239D/H268D (antibody, human IgG1, kappa, HuAM4G7 anti-CD19 IgG1 (m1) with these Fc substitutions, EU index; copies: 2 + 2) heavy: not shown light: DIVMTQSPATLSLSPGERATLSCRSSKSLQNVNGNTYLYWFQQKPGQSPQLLIYRMSNLNSGVPDRFSGSGSGTEFTLTISSLEPEDFAVYYCMQHLEYPITFGAGTKLEIKRTVAAPSVFIFPPSDEQLKSGTASVVCLLNNFYPREAKVQWKVDNALQSGNSQESVTEQDSKDSTYSLSSTLTLSKADYEKHKVYACEVTHQGLSSPVTKSFNRGEC |  | 8.68 fold |  |  |  |  |  |  | 14.4 fold | 102 nM |  |  | 1.06 fold | 2.21 fold | 3.62 fold |  |  | 
H268D/A327D (antibody, human IgG1, kappa, HuAM4G7 anti-CD19 IgG1 (m1) with these Fc substitutions, EU index; copies: 2 + 2) heavy: not shown light: DIVMTQSPATLSLSPGERATLSCRSSKSLQNVNGNTYLYWFQQKPGQSPQLLIYRMSNLNSGVPDRFSGSGSGTEFTLTISSLEPEDFAVYYCMQHLEYPITFGAGTKLEIKRTVAAPSVFIFPPSDEQLKSGTASVVCLLNNFYPREAKVQWKVDNALQSGNSQESVTEQDSKDSTYSLSSTLTLSKADYEKHKVYACEVTHQGLSSPVTKSFNRGEC | 1.47 fold | 1.73 fold |  |  |  |  |  |  | 7.68 fold | 191 nM |  |  | 0.443 fold |  |  | 3.22 fold | 1.8 fold | 5.09 fold
S267D/H268D (antibody, human IgG1, kappa, HuAM4G7 anti-CD19 IgG1 (m1) with these Fc substitutions, EU index; copies: 2 + 2) heavy: not shown light: DIVMTQSPATLSLSPGERATLSCRSSKSLQNVNGNTYLYWFQQKPGQSPQLLIYRMSNLNSGVPDRFSGSGSGTEFTLTISSLEPEDFAVYYCMQHLEYPITFGAGTKLEIKRTVAAPSVFIFPPSDEQLKSGTASVVCLLNNFYPREAKVQWKVDNALQSGNSQESVTEQDSKDSTYSLSSTLTLSKADYEKHKVYACEVTHQGLSSPVTKSFNRGEC | 1.86 fold | 5.33 fold |  |  |  |  |  |  | 14.2 fold | 103 nM |  |  | 0.598 fold |  |  | 0.902 fold | 1.96 fold | 0.968 fold
L235D/S239D (antibody, human IgG1, kappa, HuAM4G7 anti-CD19 IgG1 (m1) with these Fc substitutions, EU index; copies: 2 + 2) heavy: not shown light: DIVMTQSPATLSLSPGERATLSCRSSKSLQNVNGNTYLYWFQQKPGQSPQLLIYRMSNLNSGVPDRFSGSGSGTEFTLTISSLEPEDFAVYYCMQHLEYPITFGAGTKLEIKRTVAAPSVFIFPPSDEQLKSGTASVVCLLNNFYPREAKVQWKVDNALQSGNSQESVTEQDSKDSTYSLSSTLTLSKADYEKHKVYACEVTHQGLSSPVTKSFNRGEC |  |  |  |  |  |  |  |  | 4.11 fold | 357 nM |  |  |  | 1.57 fold | 1.41 fold |  |  | 

Stronger by Kd [6], values ahead:

Fold vs WT IgG1 (Kd) [1] | Fold vs WT IgG1 (Kd) [2] | Fold vs WT IgG1 [3] | Kd [3] | Fold vs WT IgG1 [4] | Kd [4] | Fold vs WT IgG1 [5] | Kd [5] | Fold vs WT IgG1 [6] | Kd [6] | Fold vs WT IgG1 [7] | Kd [7] | Fold vs WT IgG1 (Kd) [8] | Fold vs WT IgG1 (off-rate) [8] | Fold vs WT IgG1 (off-rate) [2] | Fold vs WT IgG1 (Kd) [9] | Fold vs WT IgG1 (off-rate) [1] | Fold vs WT IgG1 (off-rate) [9] | Binder
1.79 fold | 7.66 fold |  |  |  |  |  |  | 22.3 fold | 65.9 nM |  |  | 1 fold | 1.88 fold | 2.73 fold | 1.98 fold |  |  | S239D/S267D (antibody, human IgG1, kappa, HuAM4G7 anti-CD19 IgG1 (m1) with these Fc substitutions, EU index; copies: 2 + 2) heavy: not shown light: DIVMTQSPATLSLSPGERATLSCRSSKSLQNVNGNTYLYWFQQKPGQSPQLLIYRMSNLNSGVPDRFSGSGSGTEFTLTISSLEPEDFAVYYCMQHLEYPITFGAGTKLEIKRTVAAPSVFIFPPSDEQLKSGTASVVCLLNNFYPREAKVQWKVDNALQSGNSQESVTEQDSKDSTYSLSSTLTLSKADYEKHKVYACEVTHQGLSSPVTKSFNRGEC
3.51 fold | 1.04 fold | 0.092 fold | 2080 nM | 253 fold | 3.4 nM | 0.826 fold | 783 nM | 344 fold | 4.26 nM | 0.991 fold | 0.333 nM |  |  |  |  |  |  | S267E/H268E/L328F (antibody, human IgG1, kappa, HuAM4G7 anti-CD19 IgG1 (m1) with these Fc substitutions, EU index; copies: 2 + 2) heavy: EVQLVESGGGLVKPGGSLKLSCAASGYTFTSYVMHWVRQAPGKGLEWIGYINPYNDGTKYNEKFQGRVTISSDKSISTAYMELSSLRSEDTAMYYCARGTYYYGTRVFDYWGQGTLVTVSSASTKGPSVFPLAPSSKSTSGGTAALGCLVKDYFPEPVTVSWNSGALTSGVHTFPAVLQSSGLYSLSSVVTVPSSSLGTQTYICNVNHKPSNTKVDKKVEPKSCDKTHTCPPCPAPELLGGPSVFLFPPKPKDTLMISRTPEVTCVVVDVEEEDPEVKFNWYVDGVEVHNAKTKPREEQYNSTYRVVSVLTVLHQDWLNGKEYKCKVSNKAFPAPIEKTISKAKGQPREPQVYTLPPSREEMTKNQVSLTCLVKGFYPSDIAVEWESNGQPENNYKTTPPVLDSDGSFFLYSKLTVDKSRWQQGNVFSCSVMHEALHNHYTQKSLSLSPGK light: DIVMTQSPATLSLSPGERATLSCRSSKSLQNVNGNTYLYWFQQKPGQSPQLLIYRMSNLNSGVPDRFSGSGSGTEFTLTISSLEPEDFAVYYCMQHLEYPITFGAGTKLEIKRTVAAPSVFIFPPSDEQLKSGTASVVCLLNNFYPREAKVQWKVDNALQSGNSQESVTEQDSKDSTYSLSSTLTLSKADYEKHKVYACEVTHQGLSSPVTKSFNRGEC
4.58 fold | 1.17 fold | 0.216 fold | 887 nM | 416 fold | 2.06 nM | 1.71 fold | 378 nM | 428 fold | 3.43 nM | 1.45 fold | 0.227 nM |  |  |  |  |  |  | S239D/S267E/L328F (antibody, human IgG1, kappa, HuAM4G7 anti-CD19 IgG1 (m1) with these Fc substitutions, EU index; copies: 2 + 2) heavy: EVQLVESGGGLVKPGGSLKLSCAASGYTFTSYVMHWVRQAPGKGLEWIGYINPYNDGTKYNEKFQGRVTISSDKSISTAYMELSSLRSEDTAMYYCARGTYYYGTRVFDYWGQGTLVTVSSASTKGPSVFPLAPSSKSTSGGTAALGCLVKDYFPEPVTVSWNSGALTSGVHTFPAVLQSSGLYSLSSVVTVPSSSLGTQTYICNVNHKPSNTKVDKKVEPKSCDKTHTCPPCPAPELLGGPDVFLFPPKPKDTLMISRTPEVTCVVVDVEHEDPEVKFNWYVDGVEVHNAKTKPREEQYNSTYRVVSVLTVLHQDWLNGKEYKCKVSNKAFPAPIEKTISKAKGQPREPQVYTLPPSREEMTKNQVSLTCLVKGFYPSDIAVEWESNGQPENNYKTTPPVLDSDGSFFLYSKLTVDKSRWQQGNVFSCSVMHEALHNHYTQKSLSLSPGK light: DIVMTQSPATLSLSPGERATLSCRSSKSLQNVNGNTYLYWFQQKPGQSPQLLIYRMSNLNSGVPDRFSGSGSGTEFTLTISSLEPEDFAVYYCMQHLEYPITFGAGTKLEIKRTVAAPSVFIFPPSDEQLKSGTASVVCLLNNFYPREAKVQWKVDNALQSGNSQESVTEQDSKDSTYSLSSTLTLSKADYEKHKVYACEVTHQGLSSPVTKSFNRGEC
